Earlier results on 1 substance are cited in article PMC3667765.

This data set concerns the target E-cadherin (Homo sapiens) (UniProt P12830).
Sequence of UniProt P12830 (P12830 155-709): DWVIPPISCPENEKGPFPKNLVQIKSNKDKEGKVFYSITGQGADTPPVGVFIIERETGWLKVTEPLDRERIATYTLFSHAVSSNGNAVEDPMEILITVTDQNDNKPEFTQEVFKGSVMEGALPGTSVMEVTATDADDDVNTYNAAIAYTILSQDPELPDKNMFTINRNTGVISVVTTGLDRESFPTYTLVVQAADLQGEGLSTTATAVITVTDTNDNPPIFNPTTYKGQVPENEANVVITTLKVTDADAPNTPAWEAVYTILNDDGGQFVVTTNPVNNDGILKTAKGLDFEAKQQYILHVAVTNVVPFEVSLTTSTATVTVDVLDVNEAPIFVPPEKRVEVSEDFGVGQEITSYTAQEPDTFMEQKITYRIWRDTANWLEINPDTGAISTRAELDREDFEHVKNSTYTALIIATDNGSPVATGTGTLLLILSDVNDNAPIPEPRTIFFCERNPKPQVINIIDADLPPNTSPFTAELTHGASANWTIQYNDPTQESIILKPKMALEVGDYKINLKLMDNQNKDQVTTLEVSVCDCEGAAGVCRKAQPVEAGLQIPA

For orientation: Kd means a measure of binding affinity in units of concentration. For Internalin A (from UniProt P0DJM0), the dissociation constant Kd was 8 µM.
